Among the data in patent US20160096882A1 are Neutralization MIC values, retold here.

Holding throughout (experiment): cell-based or functional assay
In assay [1] the target is H1N1 New Caledonia/20/99 hemagglutinin (Influenza A virus H1N1 New Caledonia/20/99).
In assay [2] the target is H3N2 Wisconsin/67/05 hemagglutinin (Influenza A virus H3N2 Wisconsin/67/05).
Assay [3] deals with H5N1 Vietnam/1203/04 hemagglutinin (Influenza A virus H5N1 Vietnam/1203/04).

B1: 1286-A11 antibody (antibody, V domains shown)
VH: QVQLQQSGPRLVKPSQTLSLTCAISGDSVSGDSGTWNWIRQSPSRGLEWLGRTYYRSKWYNDYAESVKSRIVIKADTSKNEFSLQLNSVTPEDTAIYYCARAGVKIFGLIVGALDNWGRGTLVTVSS
VL: EIVMTQSPGTLSLSPGERATLSCRASQSVSSSYLAWYQQKPGQAPRLLIYGASTRATGVPDRFHGGGSGTDFTLTISRLEPEDFAVYYCQQYDTSSGLTFGGGTKVEIK
On to B1, for which the Neutralization MIC was 83 µg/mL in assay [1], greater than 333 µg/mL in assay [2] and 333 µg/mL in assay [3].
